Target: T1, MBD3-GFP, O95983
T1 chain: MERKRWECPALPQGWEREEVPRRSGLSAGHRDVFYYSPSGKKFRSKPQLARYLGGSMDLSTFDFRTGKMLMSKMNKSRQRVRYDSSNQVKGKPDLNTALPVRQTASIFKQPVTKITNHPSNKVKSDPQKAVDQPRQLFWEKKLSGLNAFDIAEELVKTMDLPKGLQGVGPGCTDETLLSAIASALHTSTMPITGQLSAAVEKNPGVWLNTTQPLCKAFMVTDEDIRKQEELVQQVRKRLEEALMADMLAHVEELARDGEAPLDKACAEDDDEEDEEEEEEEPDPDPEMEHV
Experiment: affinity purification with mass spectrometry
Conditions: remark: other sources report otherwise

- stoichiometry N: 2 per MBD3
B1: DOC-1, O14519 1-115 (natural protein)
chain: MSYKPNLAAHMPAAALNAAGSVHSPSTSMATSSQYRQLLSDYGPPSLGYTQGTGNSQVPQSKYAELLAIIEELGKEIRPTYAGSKSAMERLKRGIIHARGLVRECLAETERNARS
